# T1: mouse Fas-IC (Mus musculus, UniProt P25446)
# T1 construct: four constructs of the mouse Fas-IC; expressed in transfected cells; host or cells: SFY526 yeast
# T1 sequence (P25446 187-327 limits assumed): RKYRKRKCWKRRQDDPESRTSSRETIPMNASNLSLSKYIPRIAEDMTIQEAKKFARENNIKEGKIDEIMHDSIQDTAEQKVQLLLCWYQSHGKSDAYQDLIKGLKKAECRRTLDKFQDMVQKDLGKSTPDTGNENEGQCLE
# T2: p55 TNF receptor (Homo sapiens, UniProt P19438)
# T2 construct: human p55 TNF receptor (p55-IC residues 206-426); expressed in transfected cells; host or cells: SFY526 yeast
# T2 sequence (P19438 235-455): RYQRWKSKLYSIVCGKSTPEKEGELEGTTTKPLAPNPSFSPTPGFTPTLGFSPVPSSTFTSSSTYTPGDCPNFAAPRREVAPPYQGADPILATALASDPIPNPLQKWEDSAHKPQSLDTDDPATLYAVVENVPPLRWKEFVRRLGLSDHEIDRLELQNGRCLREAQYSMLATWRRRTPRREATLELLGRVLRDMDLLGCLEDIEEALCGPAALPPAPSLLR
# Experiments:
# mouse Fas-IC = molecular target: T1, mouse Fas-IC; assay: Two-hybrid test of MORT-1 binding (FIG. 1), mouse Fas-IC; conditions: transfected SFY526 yeasts
# Excerpt: (§1) To isolate proteins interacting with the intracellular domain of the FAS-R, the yeast two-hybrid system was used (Fields and Song, 1989). […] In this system, the genes for the candidate interacting proteins are cloned into separate expression vectors. In one expression vector, the sequence of the one candidate protein is cloned in phase with the sequence of the GAL4 DNA-binding domain to generate a hybrid protein with the GAL4 DNA-binding-domain, and in the other vector, the sequence of the second candidate protein is cloned in phase with the sequence of the GAL4 activation domain to generate a hybrid protein with the GAL4-activation domain. The two hybrid vectors are then co-transformed into a yeast host strain having a lacZ or HIS3 reporter gene under the control of upstream GAL4 binding sites. Only those transformed host cells (cotransformants) in which the two hybrid proteins are expressed and are capable of interacting with each other, will be capable of expressing the reporter gene. In the case of the lacZ reporter gene, host cells expressing this gene will become blue in color when X-gal is added to the cultures. […]
# (§2) In FIG. 1, there is depicted the interaction of the proteins encoded by the Gal4 DNA binding domain and activation-domain constructs (pGBT9 and pGAD-GH) within transfected SFY526 yeasts as assessed by β-galactosidase expression filter assay. […]
# p55 TNF receptor = molecular target: T2, p55 TNF receptor; assay: Two-hybrid test of MORT-1 binding (FIG. 1), p55 TNF receptor; conditions: p55-IC residues 206-426, FIG. 1
# Excerpt: as §1, §2
# Lamin = assay: Two-hybrid β-galactosidase expression filter assay in SFY526 yeast, DNA-binding domain hybrid Lamin; conditions: specificity test
# Excerpt: as §1, with “sites.” for “sites. Only those transformed host cells (cotransformants) in which the two hybrid proteins are expressed and are capable of interacting with each other, will be capable of expressing the reporter gene. In the case of the lacZ reporter gene, host cells expressing this gene will become blue in color when X-gal is added to the cultures.”
# The yeast two-hybrid test was further applied to evaluate the specificity of binding of MACH to MORT-1, in particular, to define the region in MORT-1 to which MACH binds, as well as to determine which of the MACH ORFs interacts with MORT-1, the procedures being as set forth herein above in Examples 1 and 2. Briefly, various MORT-1 and MACH constructs were prepared for testing the interaction of the proteins encoded by the Gal4 DNA-binding domain and activation domain constructs within transfected SFY526 yeast cells as assessed by the β-galactosidase expression filter assay. […]
Molecule,binding to mouse Fas-IC in two-hybrid test (mouse Fas-IC),binding to p55 TNF receptor in two-hybrid test (p55 TNF receptor),development of color (interaction with DNA-binding domain hybrid) (Lamin)
"MORT-1: Mediator of Receptor-induced Toxicity; protein binding the intracellular domain of FAS-R, SEQ ID NO:2 (protein) VNQAPECRFGGGILGPLGKRRDLARASEPRTEGARRAGPQPRPLADPAMDPFLVLLHSVSSSLSSSELTELKFLCLGRVVKRKLERVQSGLDLFSMLLEQNDLEPGHTELLRELLASLRRHDLLRRVDDFEAGAAAGAAPGEEDLCAAFNVICDNVGKDWRRLARQLKVSDTKIDSIEDRYPRNLTERVRESLRIWKNTEKENATVAHLVGALRSCQMNLVADLVQEVQQARDLQNRSGAMSPMSWNSDASTSEAS",binds,not,–
"MACHβ1: MACH isoform, cDNA SEQ ID NO: 4, amino acid SEQ ID NO: 5; lacks the CED3/ICE homology region (protein) MDFSRNLYDIGEQLDSEDLASLKFLSLDYIPQRKQEPIKDALMLFQRLQEKRMLEESNLSFLKELLFRINRLDLLITYLNTRKEEMERELQTPGRAQISAYRVMLYQISEEVSRSELRSFKFLLQEEISKCKLDDDMNLLDIFIEMEKRVILGEGKLDILKRVCAQINKSLLKIINDYEEFSKERSSSLEGSPDEFSNDFGQSLPNEKQTSGILSDHQQSQFCKSTGESAQTSQH",–,–,−−− (“−−−” indicates the lack of development of color within 24 hrs. of the assay)

# Reference: patent publication US7799901B2, “Modulators of the function of FAS receptors and other proteins” (Yeda Research and Development Co. Ltd., priority 1995, dated 2010)
